Experimental data as given in US20140087995A1 (published 2014).

T1: rat calcitonin receptor (rat, UniProt P32214 25-516)
T1 construct: whole, on cells; membranes of transiently transfected BHK tk'ts 13 cells (Assay VIII); also called rCTR; rat calcitonin (a) receptor
T1 sequence (looked up): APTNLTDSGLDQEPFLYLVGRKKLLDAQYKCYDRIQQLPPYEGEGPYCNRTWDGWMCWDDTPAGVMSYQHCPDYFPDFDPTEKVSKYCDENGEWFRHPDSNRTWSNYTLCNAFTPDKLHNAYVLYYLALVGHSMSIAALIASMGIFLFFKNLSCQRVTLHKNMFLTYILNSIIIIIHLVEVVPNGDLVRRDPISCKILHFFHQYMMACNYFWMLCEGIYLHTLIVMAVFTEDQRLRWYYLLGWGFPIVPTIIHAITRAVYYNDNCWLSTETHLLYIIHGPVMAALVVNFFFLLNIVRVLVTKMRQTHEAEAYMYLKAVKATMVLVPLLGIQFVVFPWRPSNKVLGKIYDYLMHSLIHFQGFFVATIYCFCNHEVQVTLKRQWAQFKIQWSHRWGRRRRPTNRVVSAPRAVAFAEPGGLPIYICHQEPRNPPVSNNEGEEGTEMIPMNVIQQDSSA

T2: human calcitonin receptor (human, UniProt P30988 25-474)
T2 construct: whole, on cells; membranes of stably transfected BHK cells (Assay VII); also called hCTR; hCT
T2 sequence (looked up): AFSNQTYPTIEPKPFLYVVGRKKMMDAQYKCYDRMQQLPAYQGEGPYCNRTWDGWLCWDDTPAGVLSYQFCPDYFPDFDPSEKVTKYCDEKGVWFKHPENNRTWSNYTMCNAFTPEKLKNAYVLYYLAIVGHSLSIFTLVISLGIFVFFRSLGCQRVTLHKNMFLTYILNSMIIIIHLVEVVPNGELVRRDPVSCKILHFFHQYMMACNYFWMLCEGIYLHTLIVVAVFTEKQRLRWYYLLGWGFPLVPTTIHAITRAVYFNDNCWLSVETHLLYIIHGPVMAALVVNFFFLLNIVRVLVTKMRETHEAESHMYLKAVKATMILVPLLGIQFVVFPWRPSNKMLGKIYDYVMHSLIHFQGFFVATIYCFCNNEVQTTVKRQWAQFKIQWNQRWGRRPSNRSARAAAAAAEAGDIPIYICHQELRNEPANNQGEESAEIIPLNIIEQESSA

T3: rat amylin receptor (rat calcitonin receptor + rat RAMP 3) (rat, UniProt P32214 25-516; Q9JJ73 23-147)
T3 construct: whole, on cells; membranes of transiently transfected BHK tk'ts 13 cells (Assay VI); also called rAmylin-R; rat amylin 3(a) receptor
T3 sequence (looked up) 1: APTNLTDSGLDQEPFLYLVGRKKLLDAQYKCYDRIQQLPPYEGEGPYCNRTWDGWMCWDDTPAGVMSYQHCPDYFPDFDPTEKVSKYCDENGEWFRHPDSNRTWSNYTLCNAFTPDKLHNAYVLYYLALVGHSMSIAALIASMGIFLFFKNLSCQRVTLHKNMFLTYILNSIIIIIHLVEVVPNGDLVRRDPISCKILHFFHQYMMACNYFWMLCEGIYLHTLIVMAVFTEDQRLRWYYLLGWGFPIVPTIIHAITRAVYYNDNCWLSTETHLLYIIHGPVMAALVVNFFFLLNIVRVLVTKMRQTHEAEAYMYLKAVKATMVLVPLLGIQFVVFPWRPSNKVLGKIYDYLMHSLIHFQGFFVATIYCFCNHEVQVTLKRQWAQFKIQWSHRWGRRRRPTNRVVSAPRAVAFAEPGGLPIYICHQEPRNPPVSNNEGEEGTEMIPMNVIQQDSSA
T3 sequence (looked up) 2: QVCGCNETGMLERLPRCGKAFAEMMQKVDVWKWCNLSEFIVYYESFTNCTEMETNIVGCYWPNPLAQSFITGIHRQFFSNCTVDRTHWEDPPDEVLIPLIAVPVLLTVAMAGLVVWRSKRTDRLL


Legend:
[1] = molecular target: T1, rat calcitonin receptor; assay: IC50 on rat calcitonin receptor divided by IC50 on rat amylin receptor (SPA competition)
[2] = molecular target: T2, human calcitonin receptor; assay: IC50 on human calcitonin receptor divided by IC50 on human amylin receptor (SPA competition)
Method: The resulting pellet was resuspended, homogenized and centrifuged (20.000 rpm, 15 min) in a buffer containing 20 mM Na-HEPES and 0.1 mM EDTA (pH 7.4, buffer 2). The resulting pellet was resuspended in buffer 2 and protein concentration was measured (BCA protein Assay, Pierce). The homogenate was kept cold during the whole procedure. The membranes were kept at −80° C. until use. The assay was performed in a 384 well Optiplate (PerkinElmer) in a total volume of 40 ul. Membranes were mixed with SPA beads. Final concentration of membranes 35 ng/μL final and SPA beads was 0.05 mg/well. Test-compounds were dissolved in DMSO and further diluted in assay buffer (50 mM Hepes, pH 7.4, 1 mM CaCl2, 5 mM MgCl₂, 0.1% OA and 0.02% Tween20). […] The final mixture was incubated with shaking at 400 rpm for 120 min at 25° C. prior to centrifugation (1500 rpm, 10 min). Samples were analyzed on TopCounter™ (Packard). The IC₅₀ was calculated using (one site binding competition analysis) GraphPad Prism5 as a measure of receptor affinity.
Membranes were prepared in the following way; the cells were rinsed with PBS and incubated with Versene for approximately 5 min before harvesting. The cells were flushed with PBS and the cell-suspension was centrifuged for 5 min at 1000 rpm. Cells were homogenized (Ultrathurrax) in a buffer containing 20 mM Na-HEPES and 10 mM EDTA (pH 7.4) and centrifuged at 20.000 rpm for 15 min. The resulting pellet was resuspended, homogenized and centrifuged (20.000 rpm, 15 min) in a buffer containing 20 mM Na-HEPES and 0.1 mM EDTA (pH 7.4, buffer 2). The resulting pellet was resuspended in buffer 2 and protein concentration was measured (BCA protein Assay, Pierce). The homogenate was kept cold during the whole procedure. The membranes were kept at −80° C. until use. Assay was performed in a 384 well Optiplate (PerkinElmer) in a total volume of 40 ul. Membranes were mixed with SPA beads.

[3] = molecular target: T3, rat amylin receptor (rat calcitonin …); assay: SPA competition with 125I-rat amylin, membranes of BHK cells with rat calcitonin receptor + rat RAMP3 (Assay VI)
[4] = molecular target: T1, rat calcitonin receptor; assay: SPA competition with 125I-calcitonin, membranes of BHK cells with rat calcitonin receptor (Assay VIII)

| Binder | Ratio rCT/rAmylin binding [1] | Ratio hCT/hAmylin binding [2] | IC50 [3] [nM] | IC50 [4] [nM] |
| --- | --- | --- | --- | --- |
| KCNTATCATQRLANFLRHSSPNFGAIPSSTNVGRNTY (C20 diacid-gGlu on the alpha amino group of the N-terminal residue (Lys 1); disulfide bridge between the two Cys residues; C-terminal amide, analogue of human amylin; also called compound 39) [N^α1-[(4S)-4-carboxy-4-(19-carboxynonadecanoylamino)butanoyl]-[Arg17,Pro21,Pro27,Arg34]-h-amylin] | 54.5 | 29 | 1.77 | 96.4 |
| KCNTATCATQRLANFLRHSSPNFGAIPSSTNVGSKTY (C20 diacid-gGlu on the alpha amino group of the N-terminal residue (Lys 1); disulfide bridge between the two Cys residues; C-terminal amide, analogue of human amylin; also called compound 34) [N^α1-[(4S)-4-carboxy-4-(19-carboxynonadecanoylamino)butanoyl]-[Arg17,Pro21,Pro27,Lys35]-h-amylin] | 52 | 64.4 | 1.72 | 89.2 |

Binders with a lower IC50 [3], results first:

| Ratio rCT/rAmylin binding [1] | Ratio hCT/hAmylin binding [2] | IC50 [3] [nM] | IC50 [4] [nM] | Binder |
| --- | --- | --- | --- | --- |
| 93.6 | 36.7 | 1.02 | 95.6 | KCNTATCATQRLAEFLRHSSPNFGAIPSSTNVGSNTY (C20 diacid-gGlu-2xOEG on the alpha amino group of the N-terminal residue (Lys 1); disulfide bridge between the two Cys residues; C-terminal amide, analogue of human amylin; also called compound 19) |
| 46.2 | 31.1 | 1.5 | 69.2 | KCNTATCATQRLANFLRHSSPNFGAIPSSTNVGHNTY (C20 diacid-gGlu on the alpha amino group of the N-terminal residue (Lys 1); disulfide bridge between the two Cys residues; C-terminal amide, analogue of human amylin; also called compound 40) [N^α1-[(4S)-4-carboxy-4-(19-carboxynonadecanoylamino)butanoyl]-[Arg17,Pro21,Pro27,His34]-h-amylin] |
